This passage reports stoichiometry N results from paper PMC8683598.

For test [1], the target named is FLAG-T. castaneum methoprene-tolerant (T. castaneum). Description: native MS; purified methoprene-bound complex exchanged into 200 mM ammonium acetate pH 7.4, nano-ESI, Synapt G2Si.
Test [2] shares this target. Description: SEC-MALS; purified complex loaded at ~5 mg/ml, Superdex 200 10/300, 50 mM Tris, 350 mM NaCl, 10 uM methoprene, 2 mM MgCl2, 100 uM TCEP, pH 8.0; peak fractions checked by SDS-PAGE.

One may read the stoichiometry N as a count of units in the complex or per binding partner.

Regarding “His6-Tribolium castaneum taiman (TcTAI) (domain or fragment)”, the stoichiometry N in test [1] and in test [2] was 1 in each case.
